# In patent publication US20180155451A1 (published 2018):
# T1: FcγRIIb, extracellular domain with C-terminal His tag (human, UniProt P31994 43-217)
# T1 construct: extracellular domain; Expressed in FreeStyle293 cells; analyte in the Biacore assay; also called FcgRIIb; 2b; not shown: His tag at the C terminus
# T1 sequence (looked up): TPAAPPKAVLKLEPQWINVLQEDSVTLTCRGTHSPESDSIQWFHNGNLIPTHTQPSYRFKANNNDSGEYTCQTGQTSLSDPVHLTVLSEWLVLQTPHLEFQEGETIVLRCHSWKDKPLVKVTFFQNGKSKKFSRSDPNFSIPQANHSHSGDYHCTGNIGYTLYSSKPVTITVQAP
# T2: FcγRIIa H (FcγRIIa type H, His at position 131), extracellular domain with C-terminal His tag (human, UniProt P12318 34-217)
# T2 construct: extracellular domain; Expressed in FreeStyle293 cells; analyte in the Biacore assay; also called FcgRIIa H; 2aH; not shown: His tag at the C terminus
# T2 sequence (looked up): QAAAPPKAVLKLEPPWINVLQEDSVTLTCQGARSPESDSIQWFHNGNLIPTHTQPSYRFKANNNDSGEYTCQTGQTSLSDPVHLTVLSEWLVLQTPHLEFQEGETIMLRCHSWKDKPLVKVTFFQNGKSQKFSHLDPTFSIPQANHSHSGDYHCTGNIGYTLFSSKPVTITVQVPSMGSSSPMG
# B1: GpH7-A5/GpH7-B3 variant I332_12R/GpL16-k0 (antibody, human IgG1, kappa)
# heavy 1: not shown
# heavy 2: not shown
# light: DIVMTQSPLSLPVTPGEPASISCQASESLVHSNRNTYLHWYLQKPGQSPQLLIYKVSNRFSGVPDRFSGSGSGTDFTLKISRVEAEDVGVYYCSQNTHVPPTFGQGTKVEIERTVAAPSVFIFPPSDEQLKSGTASVVCLLNNFYPREAKVQWKVDNALQSGNSQESVTEQDSKDSTYSLSSTLTLSKADYEKHKVYACEVTHQGLSSPVTKSFNRGEC
# notes: He Ab; IgG1; mutation in one H chain only; also called He Ab
# B2: GpH7-A5/GpH7-B3 variant P329_13S/GpL16-k0 (antibody, human IgG1, kappa)
# heavy 1: not shown
# heavy 2: not shown
# light: B1 light
# notes: as for B1
# B3: GpH7-A5/GpH7-B3 variant S324_02A/GpL16-k0 (antibody, human IgG1, kappa)
# heavy 1: not shown
# heavy 2: not shown
# light: B1 light
# notes: as for B1
# B4: GpH7-A5/GpH7-B3 variant P329_11K/GpL16-k0 (antibody, human IgG1, kappa)
# heavy 1: not shown
# heavy 2: not shown
# light: B1 light
# notes: as for B1
# B5: GpH7-A5/GpH7-B3 variant P329_18N/GpL16-k0 (antibody, human IgG1, kappa)
# heavy 1: not shown
# heavy 2: not shown
# light: B1 light
# notes: as for B1
# B6: GpH7-A5/GpH7-B3 variant P329_08L/GpL16-k0 (antibody, human IgG1, kappa)
# heavy 1: not shown
# heavy 2: not shown
# light: B1 light
# notes: as for B1
# B7: GpH7-A5/GpH7-B3 variant S324_16H/GpL16-k0 (antibody, human IgG1, kappa)
# heavy 1: not shown
# heavy 2: not shown
# light: B1 light
# notes: as for B1
# B8: GpH7-A5/GpH7-B3 variant N325_12R/GpL16-k0 (antibody, human IgG1, kappa)
# heavy 1: not shown
# heavy 2: not shown
# light: B1 light
# notes: as for B1
# B9: GpH7-A5/GpH7-B3 variant I336_20W/GpL16-k0 (antibody, human IgG1, kappa)
# heavy 1: not shown
# heavy 2: not shown
# light: B1 light
# notes: as for B1
# B10: GpH7-A5/GpH7-B3 variant P329_19Q/GpL16-k0 (antibody, human IgG1, kappa)
# heavy 1: not shown
# heavy 2: not shown
# light: B1 light
# notes: as for B1
# B11: GpH7-A5/GpH7-B3 variant P329_16H/GpL16-k0 (antibody, human IgG1, kappa)
# heavy 1: not shown
# heavy 2: not shown
# light: B1 light
# notes: as for B1
# B12: GpH7-A5/GpH7-B3 variant S324_10E/GpL16-k0 (antibody, human IgG1, kappa)
# heavy 1: not shown
# heavy 2: not shown
# light: B1 light
# notes: as for B1
# B13: GpH7-A5/GpH7-B3 variant Y300_12R/GpL16-k0 (antibody, human IgG1, kappa)
# heavy 1: not shown
# heavy 2: not shown
# light: B1 light
# notes: as for B1
# B14: GpH7-A5/GpH7-B3 variant P329_07I/GpL16-k0 (antibody, human IgG1, kappa)
# heavy 1: not shown
# heavy 2: not shown
# light: B1 light
# notes: as for B1
# B15: GpH7-A5/GpH7-B3 variant S324_19Q/GpL16-k0 (antibody, human IgG1, kappa)
# heavy 1: not shown
# heavy 2: not shown
# light: B1 light
# notes: as for B1
# B16: GpH7-A5/GpH7-B3 variant P329_15Y/GpL16-k0 (antibody, human IgG1, kappa)
# heavy 1: not shown
# heavy 2: not shown
# light: B1 light
# notes: as for B1
# B17: GpH7-A5/GpH7-B3 variant S324_11K/GpL16-k0 (antibody, human IgG1, kappa)
# heavy 1: not shown
# heavy 2: not shown
# light: B1 light
# notes: as for B1
# B18: GpH7-A5/GpH7-B3 variant S324_18N/GpL16-k0 (antibody, human IgG1, kappa)
# heavy 1: not shown
# heavy 2: not shown
# light: B1 light
# notes: as for B1
# B19: GpH7-A5/GpH7-B3 variant I332_18N/GpL16-k0 (antibody, human IgG1, kappa)
# heavy 1: not shown
# heavy 2: not shown
# light: B1 light
# notes: as for B1
# B20: GpH7-A5/GpH7-B3 variant S324_01G/GpL16-k0 (antibody, human IgG1, kappa)
# heavy 1: not shown
# heavy 2: not shown
# light: B1 light
# notes: as for B1
# B21: GpH7-A5/GpH7-B3 variant P329_12R/GpL16-k0 (antibody, human IgG1, kappa)
# heavy 1: not shown
# heavy 2: not shown
# light: B1 light
# notes: as for B1
# B22: GpH7-A5/GpH7-B3 variant S324_09D/GpL16-k0 (antibody, human IgG1, kappa)
# heavy 1: not shown
# heavy 2: not shown
# light: B1 light
# notes: as for B1
# B23: GpH7-A5/GpH7-B3 variant Y300_14T/GpL16-k0 (antibody, human IgG1, kappa)
# heavy 1: not shown
# heavy 2: not shown
# light: B1 light
# notes: as for B1
# B24: GpH7-A5/GpH7-B3 variant Y300_13S/GpL16-k0 (antibody, human IgG1, kappa)
# heavy 1: not shown
# heavy 2: not shown
# light: B1 light
# notes: as for B1
# B25: GpH7-A5/GpH7-B3 variant S324_12R/GpL16-k0 (antibody, human IgG1, kappa)
# heavy 1: not shown
# heavy 2: not shown
# light: B1 light
# notes: as for B1
# B26: GpH7-A5/GpH7-B3 variant P329_14T/GpL16-k0 (antibody, human IgG1, kappa)
# heavy 1: not shown
# heavy 2: not shown
# light: B1 light
# notes: as for B1
# B27: GpH7-A5/GpH7-B3 variant P329_02A/GpL16-k0 (antibody, human IgG1, kappa)
# heavy 1: not shown
# heavy 2: not shown
# light: B1 light
# notes: as for B1
# B28: GpH7-A5/GpH7-B3 variant I336_19Q/GpL16-k0 (antibody, human IgG1, kappa)
# heavy 1: not shown
# heavy 2: not shown
# light: B1 light
# notes: as for B1
# B29: GpH7-A5/GpH7-B3 variant P329_03V/GpL16-k0 (antibody, human IgG1, kappa)
# heavy 1: not shown
# heavy 2: not shown
# light: B1 light
# notes: as for B1
# B30: GpH7-A5/GpH7-B3 variant N325_11K/GpL16-k0 (antibody, human IgG1, kappa)
# heavy 1: not shown
# heavy 2: not shown
# light: B1 light
# notes: as for B1
# B31: GpH7-A5/GpH7-B3 variant P329_06M/GpL16-k0 (antibody, human IgG1, kappa)
# heavy 1: not shown
# heavy 2: not shown
# light: B1 light
# notes: as for B1
# B32: GpH7-A5/GpH7-B3 variant P329_04F/GpL16-k0 (antibody, human IgG1, kappa)
# heavy 1: not shown
# heavy 2: not shown
# light: B1 light
# notes: as for B1
# Experiments:
# [1] = target: T1, FcγRIIb, extracellular domain with …; test: SPR Biacore, captured antibody, FcgR analyte; GpH7-A5/GpH7-B3/GpL16-k0 = 100
# [2] = target: T2, FcγRIIa H (FcγRIIa type H, His at …); test: as above
# [3] = target: T2, FcγRIIa H (FcγRIIa type H, His at …); test: SPR Biacore; He/Con_2aH divided by He/Con_2b (reference: FcgRIIb)
Binder,He/Con_2b [1],He/Con_2aH [2],He_2aH/2b (IIaH/IIb) [3]
B1,48.9 % of HeCon Ab,87.8 % of HeCon Ab,1.8
B2,41 % of HeCon Ab,67.3 % of HeCon Ab,1.64
B3,78.3 % of HeCon Ab,102 % of HeCon Ab,1.31
B4,16.9 % of HeCon Ab,46.2 % of HeCon Ab,2.74
B5,40.4 % of HeCon Ab,66.2 % of HeCon Ab,1.64
B6,29.1 % of HeCon Ab,45.4 % of HeCon Ab,1.56
B7,83.5 % of HeCon Ab,102 % of HeCon Ab,1.22
B8,19.1 % of HeCon Ab,29.9 % of HeCon Ab,1.56
B9,20.3 % of HeCon Ab,30.9 % of HeCon Ab,1.52
B10,30.7 % of HeCon Ab,38.7 % of HeCon Ab,1.26
B11,39.1 % of HeCon Ab,66.1 % of HeCon Ab,1.69
B12,77.4 % of HeCon Ab,103 % of HeCon Ab,1.33
B13,41.2 % of HeCon Ab,55.4 % of HeCon Ab,1.34
B14,34.6 % of HeCon Ab,53.8 % of HeCon Ab,1.56
B15,66.8 % of HeCon Ab,96 % of HeCon Ab,1.44
B16,45.7 % of HeCon Ab,68.7 % of HeCon Ab,1.5

Binder,He/Con_2b [1],He/Con_2aH [2],He_2aH/2b (IIaH/IIb) [3]
B17,68.6 % of HeCon Ab,92.2 % of HeCon Ab,1.34
B18,81.1 % of HeCon Ab,97.8 % of HeCon Ab,1.21
B19,89.9 % of HeCon Ab,110 % of HeCon Ab,1.22
B20,81.1 % of HeCon Ab,98.8 % of HeCon Ab,1.22
B21,17.6 % of HeCon Ab,46.4 % of HeCon Ab,2.63
B22,85.8 % of HeCon Ab,106 % of HeCon Ab,1.23
B23,55.6 % of HeCon Ab,94.1 % of HeCon Ab,1.69
B24,53.9 % of HeCon Ab,88.1 % of HeCon Ab,1.64
B25,63.1 % of HeCon Ab,96.5 % of HeCon Ab,1.53
B26,37.9 % of HeCon Ab,62.4 % of HeCon Ab,1.65
B27,40.5 % of HeCon Ab,65.7 % of HeCon Ab,1.62
B28,58.2 % of HeCon Ab,73.7 % of HeCon Ab,1.27
B29,38.5 % of HeCon Ab,60.4 % of HeCon Ab,1.57
B30,10.4 % of HeCon Ab,16.1 % of HeCon Ab,1.55
B31,29.1 % of HeCon Ab,43.7 % of HeCon Ab,1.5
B32,32.2 % of HeCon Ab,44.5 % of HeCon Ab,1.38
